Laboratory results: PMC8695382 (Nature, 2021)

B1: Mcm5 (natural protein, Saccharomyces cerevisiae)
chain: MSFDRPEIYSAPVLQGESPNDDDNTEIIKSFKNFILEFRLDSQFIYRDQLRNNILVKNYSLTVNMEHLIGYNEDIYKKLSDEPSDIIPLFETAITQVAKRISILSRAQSANNNDKDPENTSMDTDSLLLNSLPTFQLILNSNANQIPLRDLDSEHVSKIVRLSGIIISTSVLSSRATYLSIMCRNCRHTTSITINNFNSITGNTVSLPRSCLSTIESESSMANESNIGDESTKKNCGPDPYIIIHESSKFIDQQFLKLQEIPELVPVGEMPRNLTMTCDRYLTNKVIPGTRVTIVGIYSIYNSKNGAGSGRSGGGNGGSGVAIRTPYIKILGIQSDVETSSIWNSVTMFTEEEEEEFLQLSRNPKLYEILTNSIAPSIFGNEDIKKAIVCLLMGGSKKILPDGMRLRGDINVLLLGDPGTAKSQLLKFVEKVSPIAVYTSGKGSSAAGLTASVQRDPMTREFYLEGGAMVLADGGVVCIDEFDKMRDEDRVAIHEAMEQQTISIAKAGITTVLNSRTSVLAAANPIYGRYDDLKSPGDNIDFQTTILSRFDMIFIVKDDHNEERDISIANHVINIHTGNANAMQNQQEENGSEISIEKMKRYITYCRLKCAPRLSPQAAEKLSSNFVTIRKQLLINELESTERSSIPITIRQLEAIIRITESLAKLELSPIAQERHVDEAIRLFQASTMDAASQDPIGGLNQASGTSLSEIRRFEQELKRRLPIGWSTSYQTLRREFVDTHRFSQLALDKALYALEKHETIQLRHQGQNIYRSGV
notes: Mcm5, S. cerevisiae; Subunit of m2; source: purified as part of CMG
B2: Mcm2 (natural protein, Saccharomyces cerevisiae)
chain: MSDNRRRRREEDDSDSENELPPSSPQQHFRGGMNPVSSPIGSPDMINPEGDDNEVDDVPDIDEVEEQMNEVDLMDDNMYEDYAADHNRDRYDPDQVDDREQQELSLSERRRIDAQLNERDRLLRNVAYIDDEDEEQEGAAQLDEMGLPVQRRRRRRQYEDLENSDDDLLSDMDIDPLREELTLESLSNVKANSYSEWITQPNVSRTIARELKSFLLEYTDETGRSVYGARIRTLGEMNSESLEVNYRHLAESKAILALFLAKCPEEMLKIFDLVAMEATELHYPDYARIHSEIHVRISDFPTIYSLRELRESNLSSLVRVTGVVTRRTGVFPQLKYVKFNCLKCGSILGPFFQDSNEEIRISFCTNCKSKGPFRVNGEKTVYRNYQRVTLQEAPGTVPPGRLPRHREVILLADLVDVSKPGEEVEVTGIYKNNYDGNLNAKNGFPVFATIIEANSIKRREGNTANEGEEGLDVFSWTEEEEREFRKISRDRGIIDKIISSMAPSIYGHRDIKTAVACSLFGGVPKNVNGKHSIRGDINVLLLGDPGTAKSQILKYVEKTAHRAVFATGQGASAVGLTASVRKDPITKEWTLEGGALVLADKGVCLIDEFDKMNDQDRTSIHEAMEQQSISISKAGIVTTLQARCSIIAAANPNGGRYNSTLPLAQNVSLTEPILSRFDILCVVRDLVDEEADERLATFVVDSHVRSHPENDEDREGEELKNNGESAIEQGEDEINEQLNARQRRLQRQRKKEEEISPIPQELLMKYIHYARTKIYPKLHQMDMDKVSRVYADLRRESISTGSFPITVRHLESILRIAESFAKMRLSEFVSSYDLDRAIKVVVDSFVDAQKVSVRRQLRRSFAIYTLGH
notes: Mcm2, S. cerevisiae; Subunit of m2; source: purified as part of CMG

Target: T1, Pol2 (Saccharomyces cerevisiae, UniProt P21951 1-2222)
T1 construct: Pol2, catalytic subunit of DNA polymerase ε, S. cerevisiae; catalytic domain ends at residue 1186, non-catalytic domain begins at residue 1321; Subunit of m15; source: purified as part of Pol-ε
Experiment: cryo-EM structure; yeast replisome–SCF^Dia2 complexes after gradient fixation; particles translocated onto dsDNA (conformations I and II)
Conditions: both partners purified

T1 sequence (P21951 whole entry, the tested form may be a part): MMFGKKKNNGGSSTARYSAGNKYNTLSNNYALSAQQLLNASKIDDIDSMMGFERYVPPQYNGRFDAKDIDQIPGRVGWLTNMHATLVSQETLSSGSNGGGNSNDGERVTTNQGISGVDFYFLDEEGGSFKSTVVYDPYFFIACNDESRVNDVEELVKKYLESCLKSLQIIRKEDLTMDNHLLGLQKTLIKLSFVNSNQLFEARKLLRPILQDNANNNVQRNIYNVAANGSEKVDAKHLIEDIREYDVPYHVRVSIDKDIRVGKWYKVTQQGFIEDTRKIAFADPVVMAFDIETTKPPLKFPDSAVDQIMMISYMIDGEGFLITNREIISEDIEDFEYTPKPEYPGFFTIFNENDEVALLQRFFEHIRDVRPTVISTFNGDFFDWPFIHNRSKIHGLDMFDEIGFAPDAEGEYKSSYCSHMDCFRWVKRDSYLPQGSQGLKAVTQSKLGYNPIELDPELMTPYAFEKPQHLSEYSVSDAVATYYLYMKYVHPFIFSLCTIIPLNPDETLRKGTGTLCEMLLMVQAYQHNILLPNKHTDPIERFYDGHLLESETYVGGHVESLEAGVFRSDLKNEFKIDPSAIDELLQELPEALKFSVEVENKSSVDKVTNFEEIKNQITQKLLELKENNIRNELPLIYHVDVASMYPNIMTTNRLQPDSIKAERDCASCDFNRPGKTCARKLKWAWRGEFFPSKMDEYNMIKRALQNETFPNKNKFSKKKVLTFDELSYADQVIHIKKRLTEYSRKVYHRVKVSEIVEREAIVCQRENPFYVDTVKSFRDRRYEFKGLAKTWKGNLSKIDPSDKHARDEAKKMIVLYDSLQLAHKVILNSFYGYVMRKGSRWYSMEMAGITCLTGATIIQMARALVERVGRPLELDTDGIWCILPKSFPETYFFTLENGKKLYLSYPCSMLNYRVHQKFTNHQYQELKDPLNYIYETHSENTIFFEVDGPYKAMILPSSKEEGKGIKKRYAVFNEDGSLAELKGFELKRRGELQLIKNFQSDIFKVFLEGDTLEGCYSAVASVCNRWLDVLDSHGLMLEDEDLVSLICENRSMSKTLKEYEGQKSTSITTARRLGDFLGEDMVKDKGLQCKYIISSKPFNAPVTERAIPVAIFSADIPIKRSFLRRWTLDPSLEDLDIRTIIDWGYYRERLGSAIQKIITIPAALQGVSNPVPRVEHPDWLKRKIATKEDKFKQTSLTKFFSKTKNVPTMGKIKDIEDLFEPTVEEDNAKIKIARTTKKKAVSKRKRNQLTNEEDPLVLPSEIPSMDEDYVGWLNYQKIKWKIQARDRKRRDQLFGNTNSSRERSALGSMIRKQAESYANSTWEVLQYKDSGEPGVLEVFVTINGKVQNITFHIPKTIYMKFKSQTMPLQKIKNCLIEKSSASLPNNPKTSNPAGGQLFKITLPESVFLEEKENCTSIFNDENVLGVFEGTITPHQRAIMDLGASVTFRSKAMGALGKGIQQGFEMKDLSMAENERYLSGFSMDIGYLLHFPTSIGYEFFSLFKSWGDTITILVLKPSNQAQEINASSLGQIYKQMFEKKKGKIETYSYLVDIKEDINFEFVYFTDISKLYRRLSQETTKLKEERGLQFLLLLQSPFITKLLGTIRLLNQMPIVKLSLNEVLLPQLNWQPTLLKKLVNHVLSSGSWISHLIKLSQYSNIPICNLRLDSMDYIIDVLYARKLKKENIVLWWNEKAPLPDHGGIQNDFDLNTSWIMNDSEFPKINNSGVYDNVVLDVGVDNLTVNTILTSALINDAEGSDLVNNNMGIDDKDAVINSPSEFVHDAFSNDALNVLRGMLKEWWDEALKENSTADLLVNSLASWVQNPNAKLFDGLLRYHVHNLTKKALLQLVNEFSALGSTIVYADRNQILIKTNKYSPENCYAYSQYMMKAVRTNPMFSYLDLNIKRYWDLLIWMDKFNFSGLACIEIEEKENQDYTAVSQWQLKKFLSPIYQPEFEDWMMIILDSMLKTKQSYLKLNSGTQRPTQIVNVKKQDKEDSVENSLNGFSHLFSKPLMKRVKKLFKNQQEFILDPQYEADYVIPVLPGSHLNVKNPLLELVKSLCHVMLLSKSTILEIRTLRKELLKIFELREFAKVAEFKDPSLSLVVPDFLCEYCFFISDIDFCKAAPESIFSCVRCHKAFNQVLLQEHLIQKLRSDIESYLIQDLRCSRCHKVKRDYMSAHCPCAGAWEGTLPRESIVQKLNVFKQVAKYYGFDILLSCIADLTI

binding result	Binder
binds	B1
binds	B2
